Key:
[1] = target: X. citri VirD4 all-alpha domain (VirD4AAD) (Xanthomonas citri); test: ITC
[2] = target: X. citri VirD4 all-alpha domain (VirD4AAD) (Xanthomonas citri); test: SEC-MALS

XAC2609_(XVIPCD) H315A/P316A/D317A (from UniProt A0AAI7ZGC7 311-431) (domain or fragment)
Kd [1]: 1.2 µM

XAC2609_(XVIPCD) D383A/P384A (from UniProt A0AAI7ZGC7 311-431) (domain or fragment)
Kd [1]: 28 µM

full-length X-Tfe^XAC2609 (from UniProt A0AAI7ZGC7 1-431) (natural protein)
Kd [1]: 0.4 µM

XAC2609_(XVIPCD) D363A (from UniProt A0AAI7ZGC7 311-431) (domain or fragment)
Kd [1]: 29 µM

X-Tfe^XAC2609 XVIPCD (XAC2609_(XVIPCD), residues 311–431) (from UniProt A0AAI7ZGC7 311-431) (domain or fragment)
stoichiometry N [2]: 1

XAC2609_(XVIPCD)Δ20 (residues 311–411) (from UniProt A0AAI7ZGC7 311-411) (domain or fragment)
stoichiometry N [2]: 1
